Ends that are not written are not given here.
Target: GLP-1 receptor
Assay: cell-based or functional assay

Binder	GLP-1 Receptor Activation
HVEGTFTSDVSSYKEGQAAKEFIAWLVKGRG [Val^8-Lys^20-GLP-1(7-37)OH]	0.33 relative to GLP-1(7-37)OH
HVEGTFTSDVSSYLEGQAAKHFIAWLVKGRG [Val^8-His^27-GLP-1(7-37)OH]	0.37 relative to GLP-1(7-37)OH
HVEGTFTSDVSSYLEAQAAKEFIAWLVKGRG [Val^8-Ala^22-GLP-1(7-37)OH]	0.56 relative to GLP-1(7-37)OH
HAEGTFTSDVSSYLEGQAAHEFIAWLVKGRG [Ala^8-His^26-GLP-1(7-37)OH]	0.8 relative to GLP-1(7-37)OH
HVEGTFTSDVSSYLEGQAAKEFIAWLVKGEG [Val^8-Glu^36-GLP-1(7-37)OH]	0.11 relative to GLP-1(7-37)OH
HVEGTFTSDVSSYLEGQKAKEFIAWLVKGRG [Val^8-Lys^24-GLP-1(7-37)OH]	0.02 relative to GLP-1(7-37)OH
HVEGTFTSDVSSYLEEKAAKEFIAWLVKGRG [Val^8-Glu^22-Lys^23-GLP-1(7-37)OH]	1.43 relative to GLP-1(7-37)OH
HVEGTFTSDASSYLEGQAAKEFIAWLVKGRG [Val^8-Ala^16-GLP-1(7-37)OH]	0.112 relative to GLP-1(7-37)OH
HVEGTFTSDVSSYLEGQAAKEFIAWLVKERG [Val^8-Glu^35-GLP-1(7-37)OH]	0.15 relative to GLP-1(7-37)OH
HVEGTFTSDVSSYLEGQAAKEFIDWLVKGRG [Val^8-Asp^30-GLP-1(7-37)OH]	0.15 relative to GLP-1(7-37)OH
HVEGTFTSDVSSYLESQAAKEFIAWLVKGRG [Val^8-Ser^22-GLP-1(7-37)OH]	0.5 relative to GLP-1(7-37)OH
HVEGTFTSDVSSYLEGQAAKEFIAWLGKGRG [Val^8-Gly^33-GLP-1(7-37)OH]	0.01 relative to GLP-1(7-37)OH
HVEGAFTSDVSSYLEGQAAKEFIAWLVKGRG [Val^8-Ala^11-GLP-1(7-37)OH]	0.021 relative to GLP-1(7-37)OH
HVEGTFTSDVSSYLEGQAAKEFISWLVKGRG [Val^8-Ser^30-GLP-1(7-37)OH]	0.19 relative to GLP-1(7-37)OH
HVEGTFTSDVSSYLEGQAAKEFIAWLVKPRG [Val^8-Pro^35-GLP-1(7-37)OH]	0.094 relative to GLP-1(7-37)OH
HVEGTFTSDESSYLEGQAAKEFIAWLVKGRG [Val^8-Glu^16-GLP-1(7-37)OH]	0.047 relative to GLP-1(7-37)OH
HVEGTFTSDVSSYLEGQAAKEFIAWLVEGRG [Val^8-Glu^34-GLP-1(7-37)OH]	0.17 relative to GLP-1(7-37)OH
HVEGTFTSDVSSYLEGQAAKEFIAWLAKGRG [Val^8-Ala^33-GLP-1(7-37)OH]	0.1 relative to GLP-1(7-37)OH
HVEGTFTSDVSSYLEGQAAKEFIAWLVKGHG [Val^8-His^36-GLP-1(7-37)OH]	0.22 relative to GLP-1(7-37)OH
HVEGTFTSDVSSYLEKQAAKEFIAWLVKGRG [Val^8-Lys^22-GLP-1(7-37)OH]	0.58 relative to GLP-1(7-37)OH
HVEGTFTSDVSSYLEKQAAKEFIEWLVKGRG [Val^8-Lys^22-Glu^30-GLP-1(7-37)OH]	0.37 relative to GLP-1(7-37)OH
HVEGTFTSDVSSYLEGQAAKEFIAWLVGKRG [Val^8-Gly^34-Lys^35-GLP-1(7-37)OH]	0.34 relative to GLP-1(7-37)OH
HVEGTFTSDVSSYLEGQAAKEFIHWLVKGRG [Val^8-His^30-GLP-1(7-37)OH]	0.19 relative to GLP-1(7-37)OH
HVEGTFTSDYSSYLEGQAAKEFIAWLVKGRG [Val^8-Tyr^16-GLP-1(7-37)OH]	1.18 relative to GLP-1(7-37)OH

Binder	GLP-1 Receptor Activation
HVEGTYTSDVSSYLEGQAAKEFIAWLVKGRG [Val^8-Tyr^12-GLP-1(7-37)OH]	0.81 relative to GLP-1(7-37)OH
HVEGTFTSDVSSYLEGQHAKEFIAWLVKGRG [Val^8-His^24-GLP-1(7-37)OH]	0.007 relative to GLP-1(7-37)OH
HVEGTFTSDVSSYLEGQAAKEFIAWLKNGRG [Val^8-Lys^33-Asn^34-GLP-1(7-37)OH]	0.09 relative to GLP-1(7-37)OH
HGEGTFTSDVSSYLEGQAAKEFIEWLVKGRG [Gly^8-Glu^30-GLP-1(7-37)OH]	0.29 relative to GLP-1(7-37)OH
HVEGTFTSDVSSYLEGQAAKEFIAWLKVGRG [Val^8-Lys^33-Val^34-GLP-1(7-37)OH]	0.08 relative to GLP-1(7-37)OH
HVEGTFTSDVSSYLEGQAAKEFIAWLVKHRG [Val^8-His^35-GLP-1(7-37)OH]	0.41 relative to GLP-1(7-37)OH
HVEGTFTSDVSSYLEGKAAKEFIAWLVKGRG [Val^8-Lys^23-GLP-1(7-37)OH]	0.18 relative to GLP-1(7-37)OH
HVEGTFTSDVSSYLEGQAAKEFIAWLVKGRH [Val^8-His^37-GLP-1(7-37)OH]	0.33 relative to GLP-1(7-37)OH
HVEGKFTSDVSSYLEGQAAKEFIAWLVKGRG [Val^8-Lys^11-GLP-1(7-37)OH]	0.001 relative to GLP-1(7-37)OH
HVEGTFTSDVSSYLEPQAAKEFIAWLVKGRG [Val^8-Pro^22-GLP-1(7-37)OH]	0.01 relative to GLP-1(7-37)OH
HVEGTFTSDVSSYLEDQAAKEFIAWLVKGRG [Val^8-Asp^22-GLP-1(7-37)OH]	0.4 relative to GLP-1(7-37)OH
HVEGTFTSDLSSYLEGQAAEEFIAWLVKGRG [Val^8-Leu^16-Glu^26-GLP-1(7-37)OH]	0.23 relative to GLP-1(7-37)OH
HVEGTFTSDVSSYLEGQAAKEFIAWLEKGRG [Val^8-Glu^33-GLP-1(7-37)OH]	0.039 relative to GLP-1(7-37)OH
HAEGTFTSDVSSYLEQQAAKEFIAWLVKGRG [Gln^22-GLP-1(7-37)OH]	0.42 relative to GLP-1(7-37)OH
HAEGTFTSDVSSYLEGQAAEEFIAWLVKGRG [Ala^8-Glu^26-GLP-1(7-37)OH]	0.7 relative to GLP-1(7-37)OH
HVEGTFTSDVSSYLEHQAAKEFIAWLVKGRG [Val^8-His^22-GLP-1(7-37)OH]	0.14 relative to GLP-1(7-37)OH
HVEGTFTSDVSSYLEGQAAKEFIEWLVKGRG [Val^8-Glu^30-GLP-1(7-37)OH]	0.29 relative to GLP-1(7-37)OH
HGEGHFTSDVSSYLEGQAAKEFIAWLVKGRG [Gly^8-His^11-GLP-1(7-37)OH]	0.282 relative to GLP-1(7-37)OH
HVEGTFTSDVSSYLEGEAAKEFIAWLVKGR [Val^8-Glu^23-GLP-1(7-36)OH]	0.28 relative to GLP-1(7-37)OH
HVEGTFTSDVSSYLEKEAAKEFIAWLVKGRH [Val^8-Lys^22-Glu^23-GLP-1(7-37)OH]	0.35 relative to GLP-1(7-37)OH
HVEGTFTSDVSSYLEGQAAKEFIAWLVKGGP-NH2 [Val^8-Gly^36-Pro^37-GLP-1(7-37)NH2]	0.53 relative to GLP-1(7-37)OH
HVEGTFTSDVSSYLEEQAAKEFIAWLVKGR-NH2 [Val^8-Glu^22-GLP-1(7-36)NH2]	1 relative to GLP-1(7-37)OH
HVEGTFTSDVSSYLEKQAAKEFIAWLVKGR-NH2 [Val^8-Lys^22-GLP-1(7-36)NH2]	0.53 relative to GLP-1(7-37)OH
